Results as given in paper PMC3871639.

Molecular target: T1, Stat5 (mouse liver nuclear extract, identified by WEMSA immunoblot) (mouse) (UniProt P42232)
T1 sequence: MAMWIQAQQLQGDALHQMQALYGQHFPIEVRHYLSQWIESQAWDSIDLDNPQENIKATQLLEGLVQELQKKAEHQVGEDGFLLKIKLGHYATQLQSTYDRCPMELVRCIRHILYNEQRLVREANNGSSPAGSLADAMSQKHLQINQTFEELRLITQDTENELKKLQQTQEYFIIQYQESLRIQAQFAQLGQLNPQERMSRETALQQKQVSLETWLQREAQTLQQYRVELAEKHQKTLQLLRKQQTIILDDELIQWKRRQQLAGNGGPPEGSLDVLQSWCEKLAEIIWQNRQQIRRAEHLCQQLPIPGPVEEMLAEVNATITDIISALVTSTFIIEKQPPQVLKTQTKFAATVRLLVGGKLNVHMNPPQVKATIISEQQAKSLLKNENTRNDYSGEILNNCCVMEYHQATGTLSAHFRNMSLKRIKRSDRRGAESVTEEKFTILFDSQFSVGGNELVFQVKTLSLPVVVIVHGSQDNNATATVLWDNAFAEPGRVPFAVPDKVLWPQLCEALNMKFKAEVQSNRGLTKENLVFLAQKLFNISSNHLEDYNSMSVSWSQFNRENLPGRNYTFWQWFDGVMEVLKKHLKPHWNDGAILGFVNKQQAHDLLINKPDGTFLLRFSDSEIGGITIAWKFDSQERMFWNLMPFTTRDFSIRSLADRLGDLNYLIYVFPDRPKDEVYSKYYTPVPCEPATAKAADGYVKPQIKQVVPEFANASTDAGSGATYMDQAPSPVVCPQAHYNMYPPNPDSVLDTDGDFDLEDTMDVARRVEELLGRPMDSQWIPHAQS
Assay: EMSA + immunoblot of shifted complex (WEMSA)
Details: Li-Cor EMSA buffer kit: 1x binding buffer, poly(dI-dC) 1 ug/uL (in 10 mM Tris, 1 mM EDTA, pH 7.5), 25 mM DTT/2.5% Tween-20, 1% NP-40, 100 mM MgCl2 (as listed …)

For “GTAATTCCTAGATTCATGGAAGAG (double strand) [Stat5 element probe of mouse Tmprss6 promoter]”, the binding signal (% of baseline shift (decreased by 60%)) was 40.
